This test addresses Fibronectin (FN) from human plasma (human) (UniProt P02751).
UniProt P02751, sequence (P02751 32-2477): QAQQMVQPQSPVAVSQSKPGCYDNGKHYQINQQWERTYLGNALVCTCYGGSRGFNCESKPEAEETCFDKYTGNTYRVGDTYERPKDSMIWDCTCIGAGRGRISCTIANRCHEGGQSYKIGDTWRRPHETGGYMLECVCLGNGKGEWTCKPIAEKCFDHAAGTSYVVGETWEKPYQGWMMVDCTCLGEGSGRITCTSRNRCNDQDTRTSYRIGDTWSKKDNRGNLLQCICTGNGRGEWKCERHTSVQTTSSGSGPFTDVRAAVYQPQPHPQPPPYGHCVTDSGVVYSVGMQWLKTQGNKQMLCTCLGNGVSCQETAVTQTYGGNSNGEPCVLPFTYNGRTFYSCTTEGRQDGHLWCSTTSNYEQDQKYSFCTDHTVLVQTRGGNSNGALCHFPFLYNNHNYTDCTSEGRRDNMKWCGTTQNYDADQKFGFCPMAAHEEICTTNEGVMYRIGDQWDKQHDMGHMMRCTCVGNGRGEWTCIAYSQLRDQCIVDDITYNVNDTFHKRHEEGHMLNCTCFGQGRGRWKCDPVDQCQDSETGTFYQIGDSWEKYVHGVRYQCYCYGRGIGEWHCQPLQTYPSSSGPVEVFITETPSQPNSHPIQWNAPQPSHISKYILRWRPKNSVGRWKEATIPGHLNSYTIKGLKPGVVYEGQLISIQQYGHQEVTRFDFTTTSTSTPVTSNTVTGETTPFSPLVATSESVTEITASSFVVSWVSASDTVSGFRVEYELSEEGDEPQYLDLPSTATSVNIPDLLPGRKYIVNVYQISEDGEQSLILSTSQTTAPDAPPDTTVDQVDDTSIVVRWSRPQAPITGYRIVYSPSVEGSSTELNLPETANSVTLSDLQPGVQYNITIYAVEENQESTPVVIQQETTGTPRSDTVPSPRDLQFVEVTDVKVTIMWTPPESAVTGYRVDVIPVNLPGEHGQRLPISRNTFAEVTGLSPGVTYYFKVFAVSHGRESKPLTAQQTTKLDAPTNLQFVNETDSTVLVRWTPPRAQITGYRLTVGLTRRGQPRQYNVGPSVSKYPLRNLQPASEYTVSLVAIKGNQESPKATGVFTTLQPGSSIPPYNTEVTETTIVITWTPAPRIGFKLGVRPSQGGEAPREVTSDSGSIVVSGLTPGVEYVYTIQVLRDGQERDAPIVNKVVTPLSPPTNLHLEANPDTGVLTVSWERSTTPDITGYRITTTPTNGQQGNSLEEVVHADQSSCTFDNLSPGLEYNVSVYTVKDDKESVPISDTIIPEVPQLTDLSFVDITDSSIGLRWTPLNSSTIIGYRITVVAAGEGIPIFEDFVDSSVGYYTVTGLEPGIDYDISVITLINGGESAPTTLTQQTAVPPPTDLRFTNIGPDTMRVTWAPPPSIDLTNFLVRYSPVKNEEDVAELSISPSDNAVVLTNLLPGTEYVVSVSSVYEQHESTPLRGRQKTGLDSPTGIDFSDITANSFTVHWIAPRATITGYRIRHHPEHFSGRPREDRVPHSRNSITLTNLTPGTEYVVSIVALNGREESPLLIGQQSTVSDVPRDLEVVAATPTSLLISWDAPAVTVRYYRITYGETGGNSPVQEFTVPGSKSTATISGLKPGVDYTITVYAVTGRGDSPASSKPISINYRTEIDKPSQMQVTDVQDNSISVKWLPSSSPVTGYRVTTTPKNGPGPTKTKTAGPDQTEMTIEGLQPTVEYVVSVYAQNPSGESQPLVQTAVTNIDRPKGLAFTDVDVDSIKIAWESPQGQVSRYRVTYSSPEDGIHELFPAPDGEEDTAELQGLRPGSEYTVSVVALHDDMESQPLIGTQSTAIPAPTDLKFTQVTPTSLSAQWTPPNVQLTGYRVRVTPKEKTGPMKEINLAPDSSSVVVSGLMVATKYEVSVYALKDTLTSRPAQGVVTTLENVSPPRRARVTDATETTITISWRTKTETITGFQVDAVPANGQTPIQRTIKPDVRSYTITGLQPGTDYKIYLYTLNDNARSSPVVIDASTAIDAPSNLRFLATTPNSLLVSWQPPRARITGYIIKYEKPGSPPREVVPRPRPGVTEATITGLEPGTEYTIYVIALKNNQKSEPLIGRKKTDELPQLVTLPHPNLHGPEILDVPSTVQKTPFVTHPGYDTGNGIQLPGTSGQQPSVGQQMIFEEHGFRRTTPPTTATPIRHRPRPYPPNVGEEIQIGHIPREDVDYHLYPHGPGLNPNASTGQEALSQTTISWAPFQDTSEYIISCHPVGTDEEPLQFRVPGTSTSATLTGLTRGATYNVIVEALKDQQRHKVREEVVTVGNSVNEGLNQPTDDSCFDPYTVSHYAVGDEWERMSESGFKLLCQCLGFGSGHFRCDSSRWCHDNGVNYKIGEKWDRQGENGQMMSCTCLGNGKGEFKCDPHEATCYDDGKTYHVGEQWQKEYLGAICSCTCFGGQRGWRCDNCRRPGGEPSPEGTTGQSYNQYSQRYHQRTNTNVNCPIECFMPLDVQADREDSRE

Substance “Recombinant human αVβ3 integrin (from UniProt P06756;P05106) (receptor)” gave a fold more bead attachment on FN-coated GO than on FN-coated RGO of 5 fold.

The record behind these values is article doi:10.1101/2020.02.11.944678.
